# Reference: patent US20210324099A1 (Chugai, published 2021)
# T1: hIL6R (human, UniProt P08887 20-357)
# T1 construct: Purified from culture supernatant of a CHO line; whole entry named; also called human interleukin 6 receptor (purified antigen from hIL6R-CHO supernatant)
# T1 sequence: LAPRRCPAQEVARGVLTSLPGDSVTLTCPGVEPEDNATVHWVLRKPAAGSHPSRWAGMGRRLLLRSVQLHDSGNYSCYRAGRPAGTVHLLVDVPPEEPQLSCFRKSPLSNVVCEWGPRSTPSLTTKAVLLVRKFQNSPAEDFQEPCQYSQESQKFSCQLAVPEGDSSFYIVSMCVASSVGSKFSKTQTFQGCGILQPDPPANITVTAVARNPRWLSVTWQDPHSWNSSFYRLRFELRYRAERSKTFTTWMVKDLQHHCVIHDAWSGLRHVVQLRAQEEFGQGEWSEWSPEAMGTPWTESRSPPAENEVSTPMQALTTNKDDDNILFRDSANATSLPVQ
# B1: H5041-mFa31/L3023-ml0 (antibody, mouse IgG2a, V domains shown)
# VH: EVQLVESGGGLVKPGGSLRLSCAASGFTFNTYTMHWVRQAPGKGLEWVSSISSSSKHIYYADSVKGRFTISRDNAKNSLYLQMNSLRAEDTAVYYCARYGRPWELLWVLDYWGQGTLVTVSS
# VL: QSALTQPPSASGSPGQTVTISCTGTSTPSGAYDYVSWYQQHPGKAPKLMIYQVSKRPSGVPDRFSGSKSGNTASLTVSGLQAEDEADYFCSTTNSAWDPDFGGGTKLTVLQ
# notes: the text of the results names L3021
# B2: dBBK054-P253 (antibody, human IgG1, kappa, V domains shown)
# VH: QVQLVQSGAEVKKPGSSVKVSCKASGGWFSYYMISWVRQAPGQGLEWMGVIVPINGAAQYAQKFQGRVTITADESTSTAYMELSSLRSEDTAVYYCARDRPVWRTPRGAFDIWGQGTLVTVSS
# VL: DIVMTQSPLSLPVTPGEPASISCRSSQSLVDSNMNTFLSWYLQKPGQSPQLLIYEIQHRFYGVPDRFSGSGSGTDFTLKISRVEAEDVGVYYCMQAMGFPRTFGQGTKVEIKR
# B3: dBBK102-P253 (antibody, human IgG1, kappa, V domains shown)
# VH: QVQLVQSGAEVKKPGSSVKVSCKASGGAFSYYLISWVRQAPGQGLEWMGFVDPIRGGAFYAQKFQGRVTITADESTSTAYMELSSLRSEDTAVYYCARDRPVNAAPRGAFDIWGQGTLVTVSS
# VL: DIVMTQSPLSLPVTPGEPASISCRSSQSLVWNDRNTFLSWYLQKPGQSPQLLIYEIRKRFYGVPDRFSGSGSGTDFTLKISRVEAEDVGVYYCMQAQDFPRTFGQGTKVEIKR
# B4: H0052-G4T1/L1083-lam1 (antibody, human IgG4 S228P, lambda, V domains shown)
# VH: EVQLVESGGDLVKPGGGLRLSCAASGFTFSSYTMNWVRQAPGKGLEWVSSISSRSYHIYYADSVDGRFTISRDNAKNSLYLQMNSLRAEDTAVYYCARYGKLYSLNWVFDYWGQGTLVTVSS
# VL: QSALTQPPSASGSPGQTVTISCTGTSTDVGDYAYVSWYQQHPGKAPKLMIYYVDKKPSGVPDRFSGSKSGNTASLTVSGLQAEDEADYFCSLRSPGPYPLFGGGTKLTVLG
# B5: H0002-G4T1/L1058-lam1 (antibody, human IgG4 S228P, lambda, V domains shown)
# VH: EVQLVESGGDLVKPGGGLRLSCAASGFTFSSYTMNWVRQAPGKGLEWVSSISSRSYHAYYADSVKGRFTISRDNAKNSLYLQMNSLRAEDTAVYYCARYGKLYSLNWVFDYWGQGTLVTVSS
# VL: QSALTQPPSASGSPGQTVTISCTGTSTDVGDYNYVSWYQQHPGKAPKLMIYEVVKKPSGVPDRFSGSKSGNTASLTVSGLQAEDEADYFCSLRSAGPYPLFGGGTKLTVLG
# B6: 20H4.9-MB110/20H4.9LC-mk0 (antibody, mouse IgG1, kappa)
# heavy: QVQLQQWGAGLLKPSETLSLTCAVYGGSFSGYYWSWIRQSPEKGLEWIGEINHGGYVTYNPSLESRVTISVDTSKNQFSLKLSSVTAADTAVYYCARDYGPGNYDWYFDLWGRGTLVTVSSAKTTPPSVYPLAPGSAAQTNSMVTLGCLVKGYFPEPVTVTWNSGSLSSGVHTFPAVLQSDLYTLSSSVTVPSSTWPSETVTCNVAHPASSTKVDKKIVPRDCGCKPCICTVPEVSDVFIFPPKPKDVLTITLTPKVTCVVVDISKDDPEVQFSWFVDDVEVHTAQTQPREEQFNSTFRSVSELPIMHQDWLNGKEFKCRVNSAAFPAPIEKTISKTKGRPKAPQVYTIPPPKEQMAKDKVSLTCMITDFFPEDITVEWQWNGQPAENYKNTQPIMDTDGSYFVYSKLNVQKSNWEAGNTFTCSVLHEGLHNHHTEKSLSHSPGK
# light: EIVLTQSPATLSLSPGERATLSCRASQSVSSYLAWYQQKPGQAPRLLIYDASNRATGIPARFSGSGSGTDFTLTISSLEPEDFAVYYCQQRSNWPPALTFGGGTKVEIKRADAAPTVSIFPPSSEQLTSGGASVVCFLNNFYPKDINVKWKIDGSERQNGVLNSWTDQDSKDSTYSMSSTLTLTKDEYERHNSYTCEATHKTSTSPIVKSFNRNEC
# notes: also called NS1-MB110
# B7: 20H4.9-mIgG1/20H4.9LC-mk0 (antibody)
# heavy: QVQLQQWGAGLLKPSETLSLTCAVYGGSFSGYYWSWIRQSPEKGLEWIGEINHGGYVTYNPSLESRVTISVDTSKNQFSLKLSSVTAADTAVYYCARDYGPGNYDWYFDLWGRGTLVTVSSAKTTPPSVYPLAPGSAAQTNSMVTLGCLVKGYFPEPVTVTWNSGSLSSGVHTFPAVLQSDLYTLSSSVTVPSSTWPSETVTCNVAHPASSTKVDKKIVPRDCGCKPCICTVPEVSSVFIFPPKPKDVLTITLTPKVTCVVVDISKDDPEVQFSWFVDDVEVHTAQTQPREEQFNSTFRSVSELPIMHQDWLNGKEFKCRVNSAAFPAPIEKTISKTKGRPKAPQVYTIPPPKEQMAKDKVSLTCMITDFFPEDITVEWQWNGQPAENYKNTQPIMDTDGSYFVYSKLNVQKSNWEAGNTFTCSVLHEGLHNHHTEKSLSHSPGK
# light: EIVLTQSPATLSLSPGERATLSCRASQSVSSYLAWYQQKPGQAPRLLIYDASNRATGIPARFSGSGSGTDFTLTISSLEPEDFAVYYCQQRSNWPPALTFGGGTKVEIKRADAAPTVSIFPPSSEQLTSGGASVVCFLNNFYPKDINVKWKIDGSERQNGVLNSWTDQDSKDSTYSMSSTLTLTKDEYERHNSYTCEATHKTSTSPIVKSFNRNEC
# notes: also called NS1-mIgG1
# B8: 20H4.9-MB492/20H4.9LC-mk0 (antibody, mouse IgG1, kappa)
# heavy: QVQLQQWGAGLLKPSETLSLTCAVYGGSFSGYYWSWIRQSPEKGLEWIGEINHGGYVTYNPSLESRVTISVDTSKNQFSLKLSSVTAADTAVYYCARDYGPGNYDWYFDLWGRGTLVTVSSAKTTPPSVYPLAPGSAAQTNSMVTLGCLVKGYFPEPVTVTWNSGSLSSGVHTFPAVLQSDLYTLSSSVTVPSSTWPSETVTCNVAHPASSTKVDKKIVPRDCGCKPCICEPNEVEDVFIFPPKPKDVLTITLTPKVTCVVVDISKDDPEVQFSWFVDDVEVHTAQTQPREEQFNSTFRSVSELPIMHQDWLNGKEFKCRVDSAAFPAPIEKTISKTKGRPKAPQVYTIPPPKEQMAKDKVSLTCMITDFFPEDITVEWQWNGQPAENYKNTQPIMDTDGSYFVYSKLNVQKSNWEAGNTFTCSVLHEGLHNHHTEKSLSHSPGK
# light: EIVLTQSPATLSLSPGERATLSCRASQSVSSYLAWYQQKPGQAPRLLIYDASNRATGIPARFSGSGSGTDFTLTISSLEPEDFAVYYCQQRSNWPPALTFGGGTKVEIKRADAAPTVSIFPPSSEQLTSGGASVVCFLNNFYPKDINVKWKIDGSERQNGVLNSWTDQDSKDSTYSMSSTLTLTKDEYERHNSYTCEATHKTSTSPIVKSFNRNEC
# notes: also called NS1-MB492
# B9: mPD1F2VH-mF18/mPD1F2VL-mk1 (antibody, mouse IgG1, kappa, V domains shown)
# VH: EVQLVQSGGGVVQPGRSLRLSCAASGFTFSSYWMSWVRQAPGKGLEWVSAISGSGGSTYYADSVKGRFTISRDNSKNTLYLQMNSLRAEDTAVYYCAKENWGSYFDLWGQGTTVTVSS
# VL: DIVMTQSPSTLSASVGDRVTITCRASQGISSWLAWYQQKPGRAPKVLIYKASTLESGVPSRFSGSGSGTDFTLTISSLQPEDFATYYCQQSYSTPWTFGQGTKLEIKR
# notes: Control anti-PD1 antibody; also called mPD1F2VH-mF18/mPD1F2VL-mkl
# Tests used:
# mPD1-G1CH2 [1] = molecular target: T2, mPD1-G1CH2 (mouse); assay: competition ELISA: mPD1-G1CH2 coated on the plate, mPDL1-G1dCH2His (55 nM) as the blocked ligand; 1, 10 and 100 uM ATP (curves overlap)
# T2 construct: Whole entry named; also called Fc-fused murine PD1
# [2] = molecular target: T3, Biotinylated Fc-fused monkey CD137 (monkey, biotin on the AviTag); assay: ELISA; 500 uM kynurenine, Ab 10 ug/mL
# T3 construct: Monkey CD137 extracellular region, antibody constant region and Avitag; whole entry named; also called cyCD137-Fc-BAP
# hCD137.2.4-F.G1d = molecular target: T4, hCD137.2.4-F.G1d (human); assay: ELISA; 500 uM kynurenine, Ab 10 ug/mL
# T4 construct: Portion of the human CD137 extracellular region linked to an antibody constant region
# hCD137.2.3-F.G1d = molecular target: T5, hCD137.2.3-F.G1d (human); assay: ELISA; 500 uM kynurenine, Ab 10 ug/mL
# T5 construct: Portion of the human CD137 extracellular region linked to an antibody constant region
# hCD137.3.4-F.G1d = molecular target: T6, hCD137.3.4-F.G1d (human); assay: ELISA; 500 uM kynurenine, Ab 10 ug/mL
# T6 construct: Portion of the human CD137 extracellular region linked to an antibody constant region
# hCD137.1-F-G1d = molecular target: T7, hCD137.1-F-G1d (human); assay: ELISA; 500 uM kynurenine, Ab 10 ug/mL
# T7 construct: Portion of the human CD137 extracellular region linked to an antibody constant region
# hCD137.1.2-F.G1d = molecular target: T8, hCD137.1.2-F.G1d (human); assay: ELISA; 500 uM kynurenine, Ab 10 ug/mL
# T8 construct: Portion of the human CD137 extracellular region linked to an antibody constant region
# hIL6R [3] = molecular target: T1, hIL6R; assay: SPR 37C; ADP 10 uM
# hIL6R [4] = molecular target: T1, hIL6R; assay: SPR 37C; AMP 10 uM
# hIL6R [5] = molecular target: T1, hIL6R; assay: SPR 37C; ADP 100 uM
# hIL6R [6] = molecular target: T1, hIL6R; assay: SPR 37C; AMP 100 uM
# hIL6R [7] = molecular target: T1, hIL6R; assay: SPR 37C, mean; ATP 1 uM
# hIL6R [8] = molecular target: T1, hIL6R; assay: SPR 37C, mean; ATP 10 uM
# hIL6R [9] = molecular target: T1, hIL6R; assay: SPR 37C, mean; ATP 100 uM
# hIL6R [10] = molecular target: T1, hIL6R; assay: SPR 37C, mean; ATP 100 uM; ATP 100 uM; mean
# hCD137(FXa digested) [11] = molecular target: T9, hCD137(FXa digested) (human, UniProt Q07011 24-186); assay: SPR 37C; no ATP
# T9 construct: also called human CD137 extracellular domain
# hCD137(FXa digested) [12] = molecular target: T9, hCD137(FXa digested); assay: SPR 37C; ATP 1 uM
# hCD137(FXa digested) [13] = molecular target: T9, hCD137(FXa digested); assay: SPR 37C; ATP 10 uM
# hCD137(FXa digested) [14] = molecular target: T9, hCD137(FXa digested); assay: SPR 37C; ATP 100 uM
# mPD1-G1CH2 [15] = molecular target: T2, mPD1-G1CH2; assay: competition ELISA: mPD1-G1CH2 coated on the plate, mPDL1-G1dCH2His (55 nM) as the blocked ligand; 0, 1, 10 and 100 uM ATP (curves overlap)
# mPD1-G1CH2 [16] = molecular target: T2, mPD1-G1CH2; assay: as above; remark: listed apart in the source
binder,measurement,setting,value
B1,IC50 (read off the curve),mPD1-G1CH2 [1],~0.8 µg/mL
B2,absorbance ratio,[2],1.1
same,absorbance ratio,hCD137.2.4-F.G1d,1.3
same,absorbance ratio,hCD137.2.3-F.G1d,1.1
same,absorbance ratio,hCD137.3.4-F.G1d,1.3
B3,absorbance ratio,hCD137.1-F-G1d,1.2
same,absorbance ratio,hCD137.1.2-F.G1d,1.2
same,absorbance ratio,hCD137.2.4-F.G1d,1.1
same,absorbance ratio,hCD137.2.3-F.G1d,1.1
same,absorbance ratio,hCD137.3.4-F.G1d,1.1
B4,Kd,hIL6R [3],58.1 nM
same,Kd,hIL6R [4],6.64 µM
same,Kd,hIL6R [5],10.1 nM
same,Kd,hIL6R [6],118 nM
same,Kd,hIL6R [7],1450 nM
same,Kd,hIL6R [8],50.5 nM
same,Kd,hIL6R [9],8.31 nM
B5,Kd,hIL6R [10],1160 nM
B6,Kd,hCD137(FXa digested) [11],61 nM
same,Kd,hCD137(FXa digested) [12],56.5 nM
same,Kd,hCD137(FXa digested) [13],53.9 nM
same,Kd,hCD137(FXa digested) [14],51.9 nM
B7,Kd,hCD137(FXa digested) [11],61.7 nM
same,Kd,hCD137(FXa digested) [12],56.2 nM
same,Kd,hCD137(FXa digested) [13],54.4 nM
same,Kd,hCD137(FXa digested) [14],53.6 nM
B8,Kd,hCD137(FXa digested) [11],61.6 nM
same,Kd,hCD137(FXa digested) [12],54.9 nM
same,Kd,hCD137(FXa digested) [13],53.5 nM
same,Kd,hCD137(FXa digested) [14],50.4 nM
B9,IC50 (read off the curve),mPD1-G1CH2 [15],~0.6 µg/mL
same,IC50 (read off the curve),mPD1-G1CH2 [16],~0.6 µg/mL
